According to the Immune Epitope Database (IEDB):
One block for each sequence: values may come before it.

Legend:
[1] = target: HLA-B*46:01; experiment: IEDB peptide-MHC binding, purified MHC/direct/fluorescence; filed as Kd, often an IC50 or EC50 that approximates it; ≥ and ≤ were set here for values at or beyond the usual limits of such assays; settings: source organism: Burkholderia mallei
[2] = target: HLA-C*12:03; experiment: as above
[3] = target: HLA-B*35:01; experiment: as above
[4] = target: HLA-B*48:01; experiment: as above; settings: source organism: Burkholderia mallei
[5] = target: HLA-B*07:02; experiment: as above
[6] = target: HLA-B*15:01; experiment: as above
[7] = target: HLA-B*08:01; experiment: IEDB peptide-MHC binding, purified MHC/competitive/fluorescence; filed as Kd, often an IC50 or EC50 that approximates it; ≥ and ≤ were set here for values at or beyond the usual limits of such assays
[8] = target: HLA-A*31:01; experiment: IEDB peptide-MHC binding, purified MHC/direct/fluorescence; filed as Kd, often an IC50 or EC50 that approximates it; ≥ and ≤ were set here for values at or beyond the usual limits of such assays
[9] = target: HLA-A*26:01; experiment: as above
[10] = target: HLA-B*08:01; experiment: as above
[11] = target: HLA-B*27:05; experiment: as above
[12] = target: HLA-B*40:01; experiment: as above
[13] = target: HLA-A*11:01; experiment: as above
[14] = target: HLA-A*02:01; experiment: as above
[15] = target: HLA-A*24:03; experiment: as above
[16] = target: HLA-B*58:01; experiment: as above
[17] = target: HLA-A*30:01; experiment: as above
[18] = target: HLA-A*03:01; experiment: as above
[19] = target: HLA-B*44:02; experiment: as above
[20] = target: HLA-A*69:01; experiment: as above
[21] = target: HLA-A*01:01; experiment: as above
[22] = target: HLA-B*08:02; experiment: as above
[23] = target: HLA-A*11:01; experiment: IEDB peptide-MHC binding, purified MHC/competitive/fluorescence; ≥ and ≤ were set here for values at or beyond the usual limits of such assays
[24] = target: HLA-A*03:01; experiment: as above
[25] = target: HLA-B*15:01; experiment: as above
[26] = target: HLA-A*01:01; experiment: as above
[27] = target: HLA-A*02:01; experiment: as above
[28] = target: HLA-A*29:02; experiment: IEDB peptide-MHC binding, purified MHC/competitive/fluorescence; filed as Kd, often an IC50 or EC50 that approximates it; ≥ and ≤ were set here for values at or beyond the usual limits of such assays; settings: source organism: Human betaherpesvirus 7
[29] = target: HLA-A*01:01; experiment: as above; settings: source organism: Human betaherpesvirus 7
[30] = target: HLA-A*24:02; experiment: IEDB peptide-MHC binding, purified MHC/competitive/fluorescence; ≥ and ≤ were set here for values at or beyond the usual limits of such assays
[31] = target: HLA-C*05:01; experiment: IEDB peptide-MHC binding, purified MHC/direct/fluorescence; filed as Kd, often an IC50 or EC50 that approximates it; ≥ and ≤ were set here for values at or beyond the usual limits of such assays; settings: source organism: Homo sapiens
[32] = source organism: Burkholderia mallei ATCC 23344
[33] = source organism: Vibrio cholerae
[34] = source organism: Escherichia coli O6
[35] = source organism: Coxiella burnetii
[36] = source organism: Vibrio vulnificus
[37] = source organism: Escherichia coli O157:H7
[38] = source organism: Shigella flexneri
[39] = source organism: Vaccinia virus WR
[40] = source organism: Zaire ebolavirus
[41] = source organism: Vaccinia virus
[42] = source organism: Vaccinia virus Copenhagen
[43] = source organism: Pseudomonas aeruginosa

Sequence: YMKAPSGAL
Kd [1]: 1.95 µM | Kd ([2]; source organism: Burkholderia mallei SAVP1): 0.005 µM | Kd [3, 32]: 3.13 µM | Kd [4]: 0.047 µM | Kd [5, 32]: 0.009 µM | Kd ([6]; source organism: Burkholderia mallei): 0.0385 µM

Sequence: TLHFKQYEF
Kd ([7]; source organism: Influenza A virus (A/Wyoming/3/2003-X-147(H3N2))): 0.433 µM

Sequence: RPRIRLSAP
Kd [8, 33]: ≥ 20 µM | Kd [9, 33]: ≥ 20 µM | Kd [10, 33]: 1.89 µM | Kd [11, 33]: ≥ 20 µM | Kd [12, 33]: ≥ 20 µM | Kd [13, 33]: ≥ 20 µM | Kd [14, 33]: ≥ 20 µM | Kd [15, 33]: ≥ 20 µM | Kd [16, 33]: ≥ 20 µM | Kd [17, 33]: 3.77 µM | Kd [18, 33]: ≥ 20 µM | Kd [19, 33]: ≥ 20 µM | Kd [20, 33]: ≥ 20 µM | Kd [5, 33]: 0.0278 µM | Kd [6, 33]: ≥ 20 µM | Kd [21, 33]: ≥ 20 µM

Kd [8, 34]: ≥ 20 µM | Kd [9, 34]: ≥ 20 µM | Kd [10, 34]: ≥ 20 µM | Kd [11, 34]: ≥ 20 µM | Kd [12, 34]: ≥ 20 µM | Kd [13, 34]: ≥ 20 µM | Kd [14, 34]: ≥ 20 µM | Kd [15, 34]: ≥ 20 µM | Kd [16, 34]: ≥ 20 µM | Kd [3, 34]: 0.0209 µM | Kd [18, 34]: ≥ 20 µM | Kd [20, 34]: ≥ 20 µM | Kd [5, 34]: 0.0181 µM | Kd [6, 34]: ≥ 20 µM | Kd [21, 34]: ≥ 20 µM
Sequence: TPVWHVTSA

Sequence: VPPESVEAA
Kd [8, 35]: ≥ 20 µM | Kd [9, 35]: ≥ 20 µM | Kd [10, 35]: ≥ 20 µM | Kd [11, 35]: ≥ 20 µM | Kd [12, 35]: ≥ 20 µM | Kd [13, 35]: ≥ 20 µM | Kd [14, 35]: ≥ 20 µM | Kd [16, 35]: ≥ 20 µM | Kd [3, 35]: 1.56 µM | Kd [17, 35]: ≥ 20 µM | Kd [18, 35]: ≥ 20 µM | Kd [19, 35]: ≥ 20 µM | Kd [20, 35]: ≥ 20 µM | Kd [5, 35]: 12.2 µM | Kd [6, 35]: ≥ 20 µM | Kd [21, 35]: ≥ 20 µM

Sequence: VINWKGKEL
Kd ([22]; source organism: dengue virus type 3): ≥ 20 µM

Sequence: RVNPGTYVY
IC50 ([23]; source organism: Variola virus): 0.701 µM | IC50 ([24]; source organism: Variola virus): 4.32 µM | IC50 ([25]; source organism: Variola virus): 9.02 µM | IC50 ([26]; source organism: Variola virus): 10.3 µM

Sequence: NGYRWQHQI
Kd [8, 36]: ≥ 20 µM | Kd [9, 36]: ≥ 20 µM | Kd [11, 36]: ≥ 20 µM | Kd [12, 36]: ≥ 20 µM | Kd [13, 36]: ≥ 20 µM | Kd [14, 36]: 1.35 µM | Kd [15, 36]: 7.53 µM | Kd [3, 36]: 0.843 µM | Kd [18, 36]: ≥ 20 µM | Kd [19, 36]: ≥ 20 µM | Kd [20, 36]: 0.0174 µM | Kd [6, 36]: ≥ 20 µM | Kd [21, 36]: ≥ 20 µM

Kd [8, 37]: ≥ 20 µM | Kd [9, 37]: ≥ 20 µM | Kd [10, 37]: 4.46 µM | Kd [11, 37]: ≥ 20 µM | Kd [12, 37]: ≥ 5 µM | Kd [13, 37]: ≥ 20 µM | Kd [14, 37]: ≥ 20 µM | Kd [3, 37]: 0.392 µM | Kd [18, 37]: ≥ 20 µM | Kd [19, 37]: ≥ 20 µM | Kd [20, 37]: 0.227 µM | Kd [5, 37]: 8.52 µM | Kd [6, 37]: 1.81 µM | Kd [21, 37]: ≥ 20 µM
Sequence: IAIPAHVRL

Sequence: KTTLFHTFK
Kd [8, 34]: 0.0304 µM | Kd [9, 38]: ≥ 20 µM | Kd [10, 38]: ≥ 20 µM | Kd [11, 38]: ≥ 20 µM | Kd [12, 38]: ≥ 20 µM | Kd [13, 34]: 0.0162 µM | Kd [14, 38]: ≥ 20 µM | Kd [15, 38]: ≥ 20 µM | Kd [16, 34]: 9.38 µM | Kd [17, 34]: 0.00609 µM | Kd [18, 34]: 0.122 µM | Kd [19, 38]: ≥ 20 µM | Kd [20, 38]: ≥ 20 µM | Kd [5, 38]: ≥ 20 µM | Kd [6, 38]: ≥ 20 µM | Kd [21, 38]: ≥ 20 µM

Sequence: PIDSHKGYV
IC50 [27, 39]: ≥ 129 µM | IC50 [26, 39]: 29.4 µM

Sequence: LSMFVTNKK
Kd [28]: 0.0627 µM | Kd [29]: 3 µM

Sequence: YSTTIRYQA
IC50 [27, 40]: 42.3 µM | IC50 [26, 40]: ≥ 207 µM

Sequence: AMEKSSKYY
IC50 [23, 41]: ≥ 195 µM | IC50 [27, 41]: ≥ 1170 µM | IC50 [24, 41]: ≥ 142 µM | IC50 [30, 41]: ≥ 962 µM | IC50 [25, 41]: 11 µM | IC50 [26, 41]: 28.5 µM

Kd ([2]; source organism: Homo sapiens): 0.102 µM | Kd ([13]; source organism: Homo sapiens): 10.3 µM | Kd ([14]; source organism: Homo sapiens): ≥ 39.5 µM | Kd ([20]; source organism: Homo sapiens): 3.61 µM | Kd [31]: 2.04 µM | Kd ([5]; source organism: Homo sapiens): 0.179 µM | Kd ([6]; source organism: Homo sapiens): 0.731 µM
Sequence: LVMAPRTVL

Sequence: FLRRRRAAL
Kd [22, 32]: 0.071 µM

Kd ([7]; source organism: Escherichia coli): 0.644 µM
Sequence: LAARKARAA

Sequence: LSSQMTSTF
IC50 [27, 42]: ≥ 155 µM | IC50 [30, 42]: 0.788 µM | IC50 [25, 42]: 4.85 µM | IC50 [26, 42]: ≥ 129 µM

Kd [8, 43]: 0.0287 µM | Kd [9, 43]: ≥ 20 µM | Kd [10, 43]: ≥ 20 µM | Kd [11, 43]: 3.46 µM | Kd [12, 43]: ≥ 20 µM | Kd [13, 43]: 0.117 µM | Kd [14, 43]: ≥ 20 µM | Kd [15, 43]: ≥ 20 µM | Kd [16, 43]: ≥ 20 µM | Kd [17, 43]: 0.344 µM | Kd [18, 43]: 0.286 µM | Kd [20, 43]: ≥ 20 µM | Kd [5, 43]: ≥ 20 µM | Kd [6, 43]: ≥ 20 µM | Kd [21, 43]: ≥ 20 µM
Sequence: RSFAERLDR
